Assay results from US20210079423.

Legend:
[1] = system: PR408: SP(HSA)-PTEN-L-cathepsinB**-HSA-6xHis (secreted form)
[2] = system: PR405: SP(HSA)-PTEN-L-MMP2/9-HSA-6xHis (secreted form)
[3] = system: PR407: SP(HSA)-PTEN-L-cathepsin B*-HSA-6xHis (secreted form)
[4] = system: PR402: SP(HSA)-PTEN-L-HSA-6xHis (secreted, mature form)
[5] = system: PR406: SP(HSA)-PTEN-L-cathepsin B-HSA-6xHis (secreted form)

Chain of recombinant active MMP2 protease (Enzo cat. #BML-SE237-0010) (chain, as listed by the source): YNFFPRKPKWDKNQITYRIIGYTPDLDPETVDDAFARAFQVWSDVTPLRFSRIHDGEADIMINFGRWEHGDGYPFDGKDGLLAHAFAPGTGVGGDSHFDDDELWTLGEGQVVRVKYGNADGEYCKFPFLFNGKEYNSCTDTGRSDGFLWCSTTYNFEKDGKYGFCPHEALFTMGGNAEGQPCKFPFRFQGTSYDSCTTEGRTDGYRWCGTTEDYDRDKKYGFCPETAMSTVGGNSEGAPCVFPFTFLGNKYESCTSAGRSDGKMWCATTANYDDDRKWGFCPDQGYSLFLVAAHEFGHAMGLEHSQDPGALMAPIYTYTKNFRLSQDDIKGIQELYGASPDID

Substance: active CATSB (Cathepsin B; BioVision #7580-5)
- pH dependence of in vitro cleavage (pH 5.0 against pH 7.0 buffer) [1]: CATSB only cleaves PR407 and PR408 at a low pH (FIG. 15)
- in vitro cleavage of the fusion [2]: PR405 (SEQ ID NO:129; cDNA SEQ ID NO:157) was not cleaved by CATSB
- pH dependence of in vitro cleavage (pH 5.0 against pH 7.0 buffer) [3]: CATSB only cleaves PR407 and PR408 at a low pH (FIG. 15)
- in vitro cleavage of the fusion (F-1 anti-PTEN western blot of digests at t=0, 4 h, 21 h) [4]: PR402 was not appreciably cleaved by either recombinant MMP2 or CATSB
- in vitro cleavage of the fusion [5]: though it did not cleave PR406 (SEQ ID NO:130; cDNA SEQ ID NO:158)

Substance: recombinant active MMP2 protease (Enzo cat. #BML-SE237-0010)
- in vitro cleavage of the fusion [1]: MMP2 did however cleave its consensus site (SEQ ID NO:165) on PR405 only
- in vitro cleavage of the fusion, release of a PTEN-L-like fragment (~70 KDa) [2]: MMP2 did however cleave its consensus site (SEQ ID NO:165) on PR405 only; this cleavage released a PTEN-L-like fragment (~70 KDa)
- in vitro cleavage of the fusion [3]: MMP2 did however cleave its consensus site (SEQ ID NO:165) on PR405 only
- in vitro cleavage of the fusion (F-1 anti-PTEN western blot of digests at t=0, 4 h, 21 h) [4]: PR402 was not appreciably cleaved by either recombinant MMP2 or CATSB
- in vitro cleavage of the fusion [5]: MMP2 did however cleave its consensus site (SEQ ID NO:165) on PR405 only
